Source: patent US20240366776A1 (Hoffmann-La Roche, published 2024)

T1: biotinylated IL-2 receptor beta gamma heterodimer Fc (IL-2RBG; Acro ILG-H5254) (UniProt P14784 27-239; P31785 23-262, biotinylated)
T1 construct: bought heterodimer
T1 sequence (looked up) 1: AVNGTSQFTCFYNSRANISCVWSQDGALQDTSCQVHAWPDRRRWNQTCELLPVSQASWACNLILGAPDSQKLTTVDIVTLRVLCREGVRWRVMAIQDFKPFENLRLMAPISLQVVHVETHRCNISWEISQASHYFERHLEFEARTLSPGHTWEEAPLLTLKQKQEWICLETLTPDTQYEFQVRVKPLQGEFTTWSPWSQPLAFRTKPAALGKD
T1 sequence (looked up) 2: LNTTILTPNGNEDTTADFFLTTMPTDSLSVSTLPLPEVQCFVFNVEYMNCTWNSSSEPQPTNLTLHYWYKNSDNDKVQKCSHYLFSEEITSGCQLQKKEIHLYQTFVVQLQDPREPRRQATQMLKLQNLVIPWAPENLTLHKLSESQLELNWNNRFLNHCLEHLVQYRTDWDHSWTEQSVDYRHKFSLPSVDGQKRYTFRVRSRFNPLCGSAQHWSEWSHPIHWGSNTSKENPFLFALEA

B1: AF003657 (other)
heavy: APASSSTKKTQLQLEHLLLDLQMILNGINNYKNPKLTRMLTAKFAMPKKATELKHLQCLEEELKPLEEVLNGAQSKNFHLRPRDLISNINVIVLELKGSETTFMCEYADETATIVEFLNRWITFAQSIISTLTGGGGSGGGGSGGGGSGGGGSQVQLVQSGAEVKKPGASVKVSCKASGDTFTRYYVHWVRQAPGQGLEWMGIINPSGGYASYAQKFQGRVTMTRDTSTSTVYMELSSLRSEDTAVYYCAAGLFIWGQGTLVTVSSAKTTAPSVYPLAPVCGDTTGSSVTLGCLVKGYFPEPVTLTWNSGSLSSGVHTFPAVLQSDLYTLSSSVTVTSSTWPSQSITCNVAHPASSTKVDKKIEPRGPTIKPCPPCKCPAPNAAGGPSVFIFPPKIKDVLMISLSPIVTCVVVDVSEDDPDVQISWFVNNVEVHTAQTQTHREDYNSTLRVVSALPIQHQDWMSGKEFKCKVNNKDLGAPIERTISKPKGSVRAPQVYVLPPPEEEMTKKQVTLTCMVTDFMPEDIYVEWTNNGKTELNYKNTEPVLDSDGSYFMYSKLRVEKKNWVERNSYSCSVVHEGLHNHHTTKSFSRTPGK
light: DIQMTQSPSSLSASVGDRVTITCRASQSIGRWLAWYQQKPGKAPKLLIYSASNLETGVPSRFSGSGSGTDFTLTISSLQPEDFATYYCQQYESFPVTFGPGTKVDIKRADAAPTVSIFPPSSEQLTSGGASVVCFLNNFYPKDINVKWKIDGSERQNGVLNSWTDQDSKDSTYSMSSTLTLTKDEYERHNSYTCEATHKTSTSPIVKSFNRNEC
notes: also called AF3657
B2: AF003934 (other)
heavy: APASSSTKKTQLQLEHLLLDLQMILNGINNYKNPKLTRMLTAKFAMPKKATELKHLQCLEEELKPLEEVLNGAQSKNFHLRPRDLISNINVIVLELKGSETTFMCEYADETATIVEFLNRWITFAQSIISTLTGGGGSGGGGSGGGGSGGGGSQVQLVQSGAEVKKPGASVKVSCKASGYTFTRYYMHWVRQAPGQGLEWMGIINPRAGYTSYALKFQGRVTMTRDTSTSTVYMELSSLRSEDTAVYYCTSGWDVWGQGTLVTVSSAKTTAPSVYPLAPVCGDTTGSSVTLGCLVKGYFPEPVTLTWNSGSLSSGVHTFPAVLQSDLYTLSSSVTVTSSTWPSQSITCNVAHPASSTKVDKKIEPRGPTIKPCPPCKCPAPNAAGGPSVFIFPPKIKDVLMISLSPIVTCVVVDVSEDDPDVQISWFVNNVEVHTAQTQTHREDYNSTLRVVSALPIQHQDWMSGKEFKCKVNNKDLGAPIERTISKPKGSVRAPQVYVLPPPEEEMTKKQVTLTCMVTDFMPEDIYVEWTNNGKTELNYKNTEPVLDSDGSYFMYSKLRVEKKNWVERNSYSCSVVHEGLHNHHTTKSFSRTPGK
light: DIQMTQSPSSLSASVGDRVTITCRASQSISTWLAWYQQKPGKAPKLLIYAASSLDSGVPSRFSGSGSGTDFTLTISSLQPEDFATYYCQQSYSFPVTFGQGTKVEIKRADAAPTVSIFPPSSEQLTSGGASVVCFLNNFYPKDINVKWKIDGSERQNGVLNSWTDQDSKDSTYSMSSTLTLTKDEYERHNSYTCEATHKTSTSPIVKSFNRNEC
notes: also called AF3934
B3: AF003947 (other)
heavy 1: APASSSTKKTQLQLEHLLLDLQMILNGINNYKNPKLTRMLTAKFAMPKKATELKHLQCLEEELKPLEEVLNGAQSKNFHLRPRDLISNINVIVLELKGSETTFMCEYADETATIVEFLNRWITFAQSIISTLTGGGGSGGGGSGGGGSGGGGSQVQLVQSGAEVKKPGASVKVSCKASGDTFTRYYVHWVRQAPGQGLEWMGIINPSGGYASYAQKFQGRVTMTRDTSTSTVYMELSSLRSEDTAVYYCAAGLFIWGQGTLVTVSSAKTTAPSVYPLAPVCGDTTGSSVTLGCLVKGYFPEPVTLTWNSGSLSSGVHTFPAVLQSDLYTLSSSVTVTSSTWPSQSITCNVAHPASSTKVDKKIEPRGPTIKPCPPCKCPAPNAAGGPSVFIFPPKIKDVLMISLSPIVTCVVVDVSEDDPDVQISWFVNNVEVHTAQTQTHREDYNSTLRVVSALPIQHQDWMSGKEFKCKVNNKDLGAPIERTISKPKGSVRAPQVYVLPPPEEEMTKKQVTLTCMVTDFMPEDIYVEWTNNGKTELNYKNTEPVLDSDGSYFMYSDLRVEKKNWVERNSYSCSVVHEGLHNHHTTESFSRTPGK
heavy 2: QVQLVQSGAEVKKPGASVKVSCKASGDTFTRYYVHWVRQAPGQGLEWMGIINPSGGYASYAQKFQGRVTMTRDTSTSTVYMELSSLRSEDTAVYYCAAGLFIWGQGTLVTVSSAKTTAPSVYPLAPVCGDTTGSSVTLGCLVKGYFPEPVTLTWNSGSLSSGVHTFPAVLQSDLYTLSSSVTVTSSTWPSQSITCNVAHPASSTKVDKKIEPRGPTIKPCPPCKCPAPNAAGGPSVFIFPPKIKDVLMISLSPIVTCVVVDVSEDDPDVQISWFVNNVEVHTAQTQTHREDYNSTLRVVSALPIQHQDWMSGKEFKCKVNNKDLGAPIERTISKPKGSVRAPQVYVLPPPEKEMTKKQVSLTCLVKDFMPEDIYVEWTNNGKTELNYKNTEPVLKSDGSYFMYSKLTVEKKNWVERNSYSCSVVHEGLHNHHTTKSFSRTPGGGGSGGGSHHHHHH
light: DIQMTQSPSSLSASVGDRVTITCRASQSIGRWLAWYQQKPGKAPKLLIYSASNLETGVPSRFSGSGSGTDFTLTISSLQPEDFATYYCQQYERFPVTFGPGTKVDIKRADAAPTVSIFPPSSEQLTSGGASVVCFLNNFYPKDINVKWKIDGSERQNGVLNSWTDQDSKDSTYSMSSTLTLTKDEYERHNSYTCEATHKTSTSPIVKSFNRNEC
notes: also called AF3947
B4: AF003651 (other)
heavy: APASSSTKKTQLQLEHLLLDLQMILNGINNYKNPKLTRMLTAKFAMPKKATELKHLQCLEEELKPLEEVLNGAQSKNFHLRPRDLISNINVIVLELKGSETTFMCEYADETATIVEFLNRWITFAQSIISTLTGGGGSGGGGSGGGGSGGGGSQVQLVQSGAEVKKPGASVKVSCKASGDTFTRYYVHWVRQAPGQGLEWMGIINPSGGYASYAQKFQGRVTMTRDTSTSTVYMELSSLRSEDTAVYYCAAGLFIWGQGTLVTVSSAKTTAPSVYPLAPVCGDTTGSSVTLGCLVKGYFPEPVTLTWNSGSLSSGVHTFPAVLQSDLYTLSSSVTVTSSTWPSQSITCNVAHPASSTKVDKKIEPRGPTIKPCPPCKCPAPNAAGGPSVFIFPPKIKDVLMISLSPIVTCVVVDVSEDDPDVQISWFVNNVEVHTAQTQTHREDYNSTLRVVSALPIQHQDWMSGKEFKCKVNNKDLGAPIERTISKPKGSVRAPQVYVLPPPEEEMTKKQVTLTCMVTDFMPEDIYVEWTNNGKTELNYKNTEPVLDSDGSYFMYSKLRVEKKNWVERNSYSCSVVHEGLHNHHTTKSFSRTPGK
light: DIQMTQSPSSLSASVGDRVTITCRASQSIGRYLAWYQQKPGKAPKLLIYSASNLETGVPSRFSGSGSGTDFTLTISSLQPEDFATYYCQQYNSFPVTFGPGTKVDIKRADAAPTVSIFPPSSEQLTSGGASVVCFLNNFYPKDINVKWKIDGSERQNGVLNSWTDQDSKDSTYSMSSTLTLTKDEYERHNSYTCEATHKTSTSPIVKSFNRNEC
notes: also called AF3651
B5: AF003644 (other)
heavy: APASSSTKKTQLQLEHLLLDLQMILNGINNYKNPKLTRMLTAKFAMPKKATELKHLQCLEEELKPLEEVLNGAQSKNFHLRPRDLISNINVIVLELKGSETTFMCEYADETATIVEFLNRWITFAQSIISTLTGGGGSGGGGSGGGGSGGGGSQVQLVQSGAEVKKPGASVKVSCKASGDTFTRYYVHWVRQAPGQGLEWMGIINPSGGYASYAQKFQGRVTMTRDTSTSTVYMELSSLRSEDTAVYYCAAGLFIWGQGTLVTVSSAKTTAPSVYPLAPVCGDTTGSSVTLGCLVKGYFPEPVTLTWNSGSLSSGVHTFPAVLQSDLYTLSSSVTVTSSTWPSQSITCNVAHPASSTKVDKKIEPRGPTIKPCPPCKCPAPNAAGGPSVFIFPPKIKDVLMISLSPIVTCVVVDVSEDDPDVQISWFVNNVEVHTAQTQTHREDYNSTLRVVSALPIQHQDWMSGKEFKCKVNNKDLGAPIERTISKPKGSVRAPQVYVLPPPEEEMTKKQVTLTCMVTDFMPEDIYVEWTNNGKTELNYKNTEPVLDSDGSYFMYSKLRVEKKNWVERNSYSCSVVHEGLHNHHTTKSFSRTPGK
light: DIQMTQSPSSLSASVGDRVTITCRASQSIGRWLAWYQQKPGKAPKLLIYSASNLETGVPSRFSGSGSGTDFTLTISSLQPEDFATYYCQQYNSFPVTFGPGTKVDIKRADAAPTVSIFPPSSEQLTSGGASVVCFLNNFYPKDINVKWKIDGSERQNGVLNSWTDQDSKDSTYSMSSTLTLTKDEYERHNSYTCEATHKTSTSPIVKSFNRNEC
notes: also called AF3644
B6: AF003247 (other)
heavy: APASSSTKKTQLQLEHLLLDLQMILNGINNYKNPKLTRMLTAKFAMPKKATELKHLQCLEEELKPLEEVLNGAQSKNFHLRPRDLISNINVIVLELKGSETTFMCEYADETATIVEFLNRWITFAQSIISTLTGGGGSGGGGSGGGGSGGGGSQVQLVQSGAEVKKPGASVKVSCKASGDTFTRHYVHWVRQAPGQGLEWMGIINPSGGYASYAQKFQGRVTMTRDTSTSTVYMELSSLRSEDTAVYYCAAGLFIWGQGTLVTVSSAKTTAPSVYPLAPVCGDTTGSSVTLGCLVKGYFPEPVTLTWNSGSLSSGVHTFPAVLQSDLYTLSSSVTVTSSTWPSQSITCNVAHPASSTKVDKKIEPRGPTIKPCPPCKCPAPNAAGGPSVFIFPPKIKDVLMISLSPIVTCVVVDVSEDDPDVQISWFVNNVEVHTAQTQTHREDYNSTLRVVSALPIQHQDWMSGKEFKCKVNNKDLGAPIERTISKPKGSVRAPQVYVLPPPEEEMTKKQVTLTCMVTDFMPEDIYVEWTNNGKTELNYKNTEPVLDSDGSYFMYSKLRVEKKNWVERNSYSCSVVHEGLHNHHTTKSFSRTPGK
light: DIQMTQSPSSLSASVGDRVTITCRASQSIGRWLAWYQQKPGKAPKLLIYSASNLETGVPSRFSGSGSGTDFTLTISSLQPEDFATYYCQQYESFPVTFGPGTKVDIKRADAAPTVSIFPPSSEQLTSGGASVVCFLNNFYPKDINVKWKIDGSERQNGVLNSWTDQDSKDSTYSMSSTLTLTKDEYERHNSYTCEATHKTSTSPIVKSFNRNEC
notes: also called AF3247

target: T1, biotinylated IL-2 receptor beta gamma …; assay: ELISA, captured complex, biotin-IL-2RBG 10 nM, PD-1 Fc titrated
Method: The DBA-cytokine complexes and control antibody-cytokine complexes were produced in two formats: (1) “Symmetric” immunocytokine (shown in FIG. 2E); or (2) “Asymmetric” immunocytokine (shown in FIG. 2B) by expression in mammalian cells and purified using standard protocols. […] To perform the assay, 384-well ELISA plates were coated with anti-Fc antibody at 1 micrograms/ml in 100 mM bicarbonate solution pH 9.0 overnight at 4° C. and washed twice with SUPERBLOCK™. Antibody-cytokine complexes were then added to each well at a constant concentration of 6 nM and allowed to incubate for 1 hour and washed three times in PBS plus 0.05% TWEEN® 20 (PBST). Titrated concentrations of PD-1 Fc or an IgG1 control Fc were added and allowed to incubate for 15 minutes before the addition of a constant amount of biotinylated IL-2RBG at 10 nM. The plates were incubated for an additional 30 minutes, washed and biotinylated IL-2RBG detection was performed using streptavidin-HRP and standard ELISA protocols.

Binding result, binds:
B1
B2
B3
B4
B5
B6
